Where two headings read alike, the source gives them in different places.

The record followed here is paper PMC9284427 (The Journal of Cell Biology, 2022).

B2: MBP::UNC-16[1-120] (domain or fragment, C. elegans, UniProt P34609-1 1-120, looked up)
chain: MACNLSPVNEMADSITSSTPSEIVYGGPGSPDEHRTMSDKVQTMASAIYRELETMIKVHGEDGVKTLMPLVVNVLEALDLAYLERDEQTAELEMLKEDNEQLQTQYEREKALRKQTEQKY
B6: MBP-tagged JIP3[1-108] (domain or fragment, human, UniProt Q9UPT6-1 1-108, looked up)
chain: MMEIQMDEGGGVVVYQDDYCSGSVMSERVSGLAGSIYREFERLIHCYDEEVVKELMPLVVNVLENLDSVLSENQEHEVELELLREDNEQLLTQYEREKALRRQAEEKF
B8: RILP[1-106] (domain or fragment, human, UniProt Q96NA2-1 1-106, looked up)
chain: MEPRRAAPGVPGWGSREAAGSASAAELVYHLAGALGTELQDLARRFGPEAAAGLVPLVVRALELLEQAAVGPAPDSLQVSAQPAEQELRRLREENERLRRELRAGP
B9: GST::DLIC1[388-523] (domain or fragment, human, UniProt Q9Y6G9 388-523, looked up)
chain: PTAAGRPVDASPRVPGGSPRTPNRSVSSNVASVSPIPAGSKKIDPNMKAGATSEGVLANFFNSLLSKKTGSPGGPGVSGGSPAGGAGGGSSGLPPSTKKSGQKPVLDVHAELDRITRKPVTVSPTTPTSPTEGEAS

Series [1] concerns the molecule itself. Put plainly: AUC.
For series [2], the target named is DLIC1[388-523] (human, UniProt Q9Y6G9 388-523). Description: ITC.
In series [3] the target is B6. Description: pull-down.
Series [4] concerns the target B8. Description: SEC.
Series [5] has as its target UNC-116[675-815] (C. elegans, UniProt P34540 675-815). Description: pull-down.
In series [6] the target is B2. Put plainly: pull-down.
In series [7] the target is T1, GST::KIF5C[807-956] (mouse, UniProt P28738 807-956). Put plainly: pull-down.
For series [8], the target named is T1, GST::KIF5C[807-956]. Put plainly: pull-down. The source holds these as a separate data set.
The target in series [9] is B9. Description: pull-down.
Series [10] concerns the target T2, full-length RILP (human, UniProt Q96NA2-1 1-401).
T2 sequence (looked up): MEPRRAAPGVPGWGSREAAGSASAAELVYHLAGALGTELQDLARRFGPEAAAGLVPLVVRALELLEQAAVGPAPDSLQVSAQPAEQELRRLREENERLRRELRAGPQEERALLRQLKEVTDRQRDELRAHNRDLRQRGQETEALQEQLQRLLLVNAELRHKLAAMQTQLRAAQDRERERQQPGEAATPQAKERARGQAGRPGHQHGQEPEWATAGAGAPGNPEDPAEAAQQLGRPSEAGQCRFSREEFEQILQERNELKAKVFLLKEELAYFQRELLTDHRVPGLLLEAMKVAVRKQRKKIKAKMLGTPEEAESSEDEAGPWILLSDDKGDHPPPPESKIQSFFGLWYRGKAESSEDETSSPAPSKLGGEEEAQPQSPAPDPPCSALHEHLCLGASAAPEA
Description: pull-down.

Series [11] addresses T3, mouse JIP3[186-505] (mouse, UniProt Q9ESN9-5 186-505).
T3 sequence (looked up): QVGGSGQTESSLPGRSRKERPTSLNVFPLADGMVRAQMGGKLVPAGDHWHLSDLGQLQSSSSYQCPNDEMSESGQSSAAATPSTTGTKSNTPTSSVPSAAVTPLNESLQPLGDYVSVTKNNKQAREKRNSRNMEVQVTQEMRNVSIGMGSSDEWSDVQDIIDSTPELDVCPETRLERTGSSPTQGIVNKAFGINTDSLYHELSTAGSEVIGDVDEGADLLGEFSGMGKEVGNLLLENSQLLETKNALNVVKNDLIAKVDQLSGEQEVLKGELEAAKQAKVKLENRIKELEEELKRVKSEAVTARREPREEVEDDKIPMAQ
Description: pull-down.

T1 sequence (P28738 807-956): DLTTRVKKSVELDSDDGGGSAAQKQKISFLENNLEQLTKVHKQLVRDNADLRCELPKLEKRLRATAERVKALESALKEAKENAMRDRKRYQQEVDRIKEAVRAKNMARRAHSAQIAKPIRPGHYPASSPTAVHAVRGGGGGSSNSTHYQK
Chain of UNC-116[675-815] (P34540 675-815): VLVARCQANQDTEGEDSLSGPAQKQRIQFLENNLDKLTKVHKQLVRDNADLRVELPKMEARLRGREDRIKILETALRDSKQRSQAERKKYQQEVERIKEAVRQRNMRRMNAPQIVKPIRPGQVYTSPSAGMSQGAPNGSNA

B1: JIP4[1-103] (domain or fragment, human, UniProt O60271-1 1-103, looked up)
chain: MELEDGVVYQEEPGGSGAVMSERVSGLAGSIYREFERLIGRYDEEVVKELMPLVVAVLENLDSVFAQDQEHQVELELLRDDNEQLITQYEREKALRKHAEEKF
Turning to B1, in series [1], the “stoichiometry N” value stood at 2. In series [2], the Kd is ~4000 nM and the “stoichiometry N” value was 2 DLIC1-C molecules per RH1 dimer.
For NMKAGATSEGVLANFFNSLLSKKTGS (peptide, UniProt Q9Y6G9 433-458, looked up) [DLIC-C helix 1 peptide (residues 433-458)], in series [3], the binding result is “binds”.
In the case of SEGVLANFFNSLLSKK (domain or fragment, human) [DLIC1[440-455]], the binding result in series [4] is on record as “binds”.
As to B2, the binding result in series [5] is recorded as “binds”.

B3: GST::DLI-1[369-442] (domain or fragment, C. elegans, UniProt G5ED34 369-442, looked up)
chain: TTAAPKPRTMQEEPTDKDSPLANFFSNLLNKDKPSKVSSPSTVSQPMDAAATQAQLDRLLKSAQSPKPQPRDSD
Consider B3, for which, in series [6], the binding result is reported as “binds”.

B4: MBP::UNC-16[1-120] V72Q (domain or fragment, C. elegans, UniProt P34609-1 1-120, looked up)
chain: MACNLSPVNEMADSITSSTPSEIVYGGPGSPDEHRTMSDKVQTMASAIYRELETMIKVHGEDGVKTLMPLVQNVLEALDLAYLERDEQTAELEMLKEDNEQLQTQYEREKALRKQTEQKY
On to B4, for which, in series [5], the binding result is listed as “binds”.

B5: JIP3[1-108] (domain or fragment, human, UniProt Q9UPT6-1 1-108, looked up)
chain: MMEIQMDEGGGVVVYQDDYCSGSVMSERVSGLAGSIYREFERLIHCYDEEVVKELMPLVVNVLENLDSVLSENQEHEVELELLREDNEQLLTQYEREKALRRQAEEKF
In the case of B5, the “stoichiometry N” value in series [1] is 2. Besides, in series [2], the Kd is ~1000 nM and the “stoichiometry N” value was 2 DLIC1-C molecules per RH1 dimer. Further, the binding result in series [7] was “binds”.
Turning to B6, the binding result in series [8] is recorded as “binds”.

B7: JIP3[1-108] V60Q (domain or fragment, human, UniProt Q9UPT6-1 1-108, looked up)
chain: MMEIQMDEGGGVVVYQDDYCSGSVMSERVSGLAGSIYREFERLIHCYDEEVVKELMPLVQNVLENLDSVLSENQEHEVELELLREDNEQLLTQYEREKALRRQAEEKF
Regarding B7, the “stoichiometry N” value in series [1] turned out to be 2. In addition, the binding result in series [7] is recorded as “binds”.
Regarding B8, the binding result in [9] is given as “binds”.
Consider B9, for which the binding result in series [10] is “binds”.

B10: GST-tagged KLC1[185-501] (domain or fragment, human, UniProt Q07866-1 185-501, looked up)
chain: DDPGQGIQQQHSSAAAAAQQGGYEIPARLRTLHNLVIQYASQGRYEVAVPLCKQALEDLEKTSGHDHPDVATMLNILALVYRDQNKYKDAANLLNDALAIREKTLGKDHPAVAATLNNLAVLYGKRGKYKEAEPLCKRALEIREKVLGKDHPDVAKQLNNLALLCQNQGKYEEVEYYYQRALEIYQTKLGPDDPNVAKTKNNLASCYLKQGKFKQAETLYKEILTRAHEREFGSVDDENKPIWMHAEEREECKGKQKDGTSFGEYGGWYKACKVDSPTVTTTLKNLGALYRRQGKFEAAETLEEAAMRSRKQGLDNV
For B10, in [11], the binding result is “binds”.
